Key:
[1] = molecular target: T1, GST-ICR1 (Arabidopsis, UniProt Q8LE98 1-344); assay: pull-down; GST-ICR1 (1.2 μg) or GST (0.4 μg) on Glutathione sepharose, His6-CMI1 0.5 μg; 20 mM Tris-HCl pH 7.5, 5 mM CaCl2, 0.1 mg/mL BSA, 200 mM NaCl, 1% Triton X-100, RT; wash with 1 M NaCl; blot with anti-poly-His; settings: both partners purified
T1 construct: ICR1, Arabidopsis; also called glutathione S-transferase (GST)-ICR1; source: E. coli Rosetta (DE3), purified (Glutathione sepharose)
T1 sequence (looked up): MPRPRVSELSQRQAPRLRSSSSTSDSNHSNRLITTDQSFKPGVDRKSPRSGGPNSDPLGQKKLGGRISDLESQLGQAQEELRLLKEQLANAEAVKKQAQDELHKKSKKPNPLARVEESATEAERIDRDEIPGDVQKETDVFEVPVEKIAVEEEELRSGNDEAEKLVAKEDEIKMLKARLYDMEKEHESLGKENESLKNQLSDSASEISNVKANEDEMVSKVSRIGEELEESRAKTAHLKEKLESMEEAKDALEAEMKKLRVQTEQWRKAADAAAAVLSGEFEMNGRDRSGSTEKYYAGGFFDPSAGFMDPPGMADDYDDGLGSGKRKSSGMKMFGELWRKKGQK

[2] = molecular target: T2, His6-ICR1 (Arabidopsis, UniProt Q8LE98 1-344); assay: co-IP; purified His6-CMI1 and His6-ICR1, 1 μg each, 300 μL reaction buffer (20 mM Tris-HCl pH 7.5, 5 mM CaCl2, 0.1 mg/mL BSA, 200 mM NaCl, 1% Triton X-100), RT; anti-CMI1 antibodies and Protein A beads; blot with anti-poly-His; settings: both partners purified
T2 construct: ICR1, Arabidopsis; also called His-ICR1; source: E. coli Rosetta (DE3), purified (Ni-NTA)
T2 sequence (looked up): T1 sequence (looked up)

binding result [1]: binds
binding result [2]: binds
B1: His6-CMI1 (natural protein, Arabidopsis, UniProt O81831 1-130, looked up)
chain: MASPKSPTRPTQQNPQPNFHDFLPTMAGNLGGEGLIGELCNGFELLMDREKGVITFESLRRNAAAVLGLGDLTDEDVRCMIKEGDFDCDGALNQMEFCVLMFRLSPDLMEASRCLVTEVIEEEFGFTRRH
notes: CMI1, Arabidopsis, At4g27280; also called His-CMI1; source: E. coli Rosetta (DE3), purified (Ni-NTA)

From paper PMC6650080, “A novel Ca2+-binding protein that can rapidly transduce auxin responses during root growth” (PLoS Biology, 2019)
